From patent publication US20180021429A1, “ANTICANCER AGENTS OR ANTIMETASTATIC AGENTS USING FSTL1 AND COMBINATION DRUG THEREOF” (PHARMA FOODS INTERNATIONAL CO., LTD., priority 2015, published 2018) come the findings set out here.

“Also recorded” adds a separate entry of the source.

The subject of assay [1] is GFP-positive and Snail-positive B16-F10 tumor cells. The experiment in a line: In vivo, intraperitoneal administration, Snail-positive B16-F10 bone metastasis model (Example 18). The arrangement: species or system mouse. Particulars: intraperitoneal 10 mg/kg on days 5 and 10; day 14. An excerpt:
1. Experiment Group (n=5) • 1. No treatment (0.9% NaCl as a sham) • 2. Control IgG (anti-DNP) • 3. Anti-FSTL1 Clone #6-55 • 4. Anti-FSTL1 Clone #7-34 • 5. Anti-FSTL1 Clone #8-1 […]
• Effects on the growth of subcutaneous tumor (calculation of tumor volume by tumor size measurement): measured 7, 11, and 14 days after tumor implantation (FIG. 42B) • Effects on bone metastasis (GFP-positive tumor cells in bone marrow or the spleen) (FIGS. 42A and 42C) • Effects on MSC expansion (CD45-negative cells in bone marrow or the spleen) (FIGS. 42A and 42C) • Effects on weight loss (FIG. 42A) • Effects on the expansion of immunosuppressive Treg cells (CD4-positive and Foxp3-positive cells in the spleen) (FIG. 42C) • Other immunosuppressive properties (FIG. 42C)
In Example 17, the antibody was administered into tumor according to the purpose of “inhibiting metastasis from a primary focus to bone” as previously conducted by the present inventors. […] Specifically, antitumor effects and immunosuppression-mitigating effects were comparatively analyzed by the intraperitoneal administration (systemic administration) of the anti-FSTL1 antibody using bone metastasis models in which mouse melanoma cells (B16-F10) forced to express Snail were subcutaneously and intravenously transplanted in C57BL/6N mice. […]

Assay [2] concerns the target T1, FSTL1 (Homo sapiens, UniProt Q12841).
T1 sequence (Q12841 21-308): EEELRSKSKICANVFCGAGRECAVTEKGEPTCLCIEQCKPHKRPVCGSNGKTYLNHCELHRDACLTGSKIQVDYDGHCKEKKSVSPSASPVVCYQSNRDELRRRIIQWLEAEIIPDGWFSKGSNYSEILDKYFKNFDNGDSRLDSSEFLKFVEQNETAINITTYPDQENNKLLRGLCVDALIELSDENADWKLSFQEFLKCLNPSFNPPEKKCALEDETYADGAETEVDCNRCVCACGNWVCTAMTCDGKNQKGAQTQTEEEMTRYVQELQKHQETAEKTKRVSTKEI
The experiment in a line: Biacore T-200 affinity of mouse chimeric antibodies for human FSTL1 (Example 33). In kind it is binding. The method, then: The mouse chimeric antibodies were immobilized onto Sensor Chip CM5 (GE Healthcare Japan Corp., BR-1005-30) using Mouse Antibody Capture Kit (GE Healthcare Japan Corp., BR-1008-38), and their affinity for human FSTL1 was calculated using Biacore T-200 (GE Healthcare Japan Corp.).
First, the exhaustive activity comparison of the obtained antibodies was conducted with the human FSTL1 concentration fixed to 10 μg/ml (Table 33-1, FIG. 122).
Next, the KD values of clone #6-55, #7-34, and #13 presumed to have high affinity in FIG. 122 were calculated with the antigen concentration adjusted to 0 to 20 μg/ml (Table 35-2).

Assay [3] addresses T1, FSTL1. The experiment in a line: Inhibition of activation of tumor cells by FSTL1, RANKL- and CCR2-positive cells in human pancreatic cancer cell line Panc1 (Examples 5, 7, 9, 10, 11). In kind it is cell-based. Details: purchased R&D Systems, Inc. 1694-FN-050. The settings on record: Example 9; FSTL1 20 ng/mL, antibody 10 μg/mL, 3 days.
Assay [4] concerns the target T1, FSTL1. Kind of assay: MSC induction inhibition test using mouse bone marrow cells stimulated with FSTL1 (Example 27). It counts as cell-based. The arrangement: purchased R&D Systems, Inc. 1694-FN-050. The settings on record: FSTL1 20 ng/mL, antibody 10 μg/mL, 8 days. The method, then:
(§1) In this Example, the inhibitory activity of the anti-FSTL1 antibody was confirmed in an experimental system of mesenchymal stem cell induction while a FSTL1 inhibitory effect on MSC expansion induced not only by FSTL1 but by Snail+ tumor cells was also evaluated. For specific operation, each antibody (10 μg/mL) was added to systems in which C57/BL/6 mouse-derived bone marrow cells were stimulated with FSTL1 (20 ng/mL) or a culture supernatant of tumor cells. After culture for 8 days under stimulation, cell fraction CD45(−) cells (MSCs) containing MSCs at a high rate and CD45(−)CD146(+)ALCAM(+) cells (sMSCs) increasing in number in association with cancer metastasis were analyzed by flow cytometry in the same way as in Example 14, and the number of cells per culture system was counted. In this Example, mouse immunoglobulin manufactured by BioLegend, Inc. (4401408, Cone MG1-45) was used as a control antibody.
as §1, with “(#401408,” for “(4401408,”

For assay [5], the system named is C57/BL/6 mouse-derived bone marrow cells. The assay is described as above. It counts as cell-based. The settings on record: FSTL1 20 ng/mL, antibody 10 μg/mL, 8 days; flow cytometry; FIG. 115A. The method, then: as §1, with “(#401408,” for “(4401408,”
For orientation: In flow cytometry, cells or beads pass a laser one at a time.

B1: #6-55: chicken-mouse chimeric anti-FSTL1 antibody clone; variable regions SEQ ID NO: 783 (light), 785 (heavy) (antibody, V domains shown)
VH: AVTLDESGGGLQTPGGALSLVCKGSGFTFTSVTMQWVRQAPGKGLEWVASVCSGSSTYYAPAVKGRATISRDNGQSTVRLQLSNLRPEDTGTYYCAKIAGRARWSCTSAAYNIDAWGHGTEVIVSS
VL: ASTQPSSVSAIPGETVKITCSGGGNNYGWYQQRSPGSAPVTVIYYNDNRPSNIPSRFSGSTSGSTSTLTITGVQADDEAIYYCGSWDSNTDSGIFGAGTTLTVL
modifications: mouse constant regions
In the case of B1, in assay [1], the “effect on weight loss (mouse body weight)” value was “anti-weight loss effect”. In addition, the “affinity in an assay system using surface plasmon resonance” value (from here on “affinity in an assay system”) with FSTL1 [2] is recorded as “strong affinity”. In addition, the “inhibitory activity against the expansion of RANKL-positive cells and CCR2-positive cells” value with FSTL1 [3] is listed as “higher inhibitory activity; also recorded: exhibited inhibitory activity”.

B2: #33: chicken-mouse chimeric anti-FSTL1 antibody clone; variable regions SEQ ID NO: 823 (light), 825 (heavy) (antibody, V domains shown)
VH: AVTLDESGGGLQTPGGGLSLVCKASGFTFSSFNMNWVRQAPGKGLEYVAEISGTGSSTYYGSAVKGRATISRDNGQSTVRLQLNNLRAEDTATYFCARGDGAYSIDAWGHGTEVIVSS
VL: ASTQPSSVSANPGETVEITCSGDSSYYGWFQQKSPGSAPVTVIYDNTNRPSDIPSRFSGSKSGSTATLTITGVRAEDEAVYYCGGYDSSTYDGIFGAGTTLTVL
modifications: mouse constant regions
B2: in the assay with FSTL1 [4], the “MSC induction inhibitory activity, reproducibility confirmed” value is on record as “high MSC induction inhibitory activity equivalent to or higher than that of #6-55”; the “inhibitory effect in the MSC induction inhibition test (CD45(−) MSCs and sMSCs, flow cytometry)” value was “strong inhibitory effect equivalent to or higher than that of #6-55”. Moreover, the “affinity in an assay system” value with FSTL1 [2] is reported as “strong affinity”. Moreover, in assay [5], the “MSC induction inhibitory effect” value is on record as “strong inhibitory effect equivalent to or higher than that of #6-55”.

B3: #5-8: chicken-mouse chimeric anti-FSTL1 antibody clone; variable regions SEQ ID NO: 771 (light), 773 (heavy) (antibody, V domains shown)
VH: AVTLDESGGGLQTPGGGLSLVCKGSGFTFSSFNMFWVRQAPGKGLEWVAGIGKDGVPKYGTAVDGRATISKDNGQSTMRLQLNNLRAEDTGTYFCAKAAGGCSYDWCGIYTGDIDTWGHGTEVIVSS
VL: ASTQPSSVSANPGEAVKITCSGGSGSYYGWYQQKSPGSAPVTVIYNNNQRPSDIPSRFSGSKSGSTATLTITGVQAEDEAVYFCGGYDSSTGHGGIFGAGTTLTVL
modifications: mouse constant regions
With B3, in the assay with FSTL1 [3], the “inhibitory activity against the expansion of RANKL-positive cells and CCR2-positive cells” value is on record as “higher inhibitory activity; also recorded: exhibited inhibitory activity”.

B4: #8-1: chicken-mouse chimeric anti-FSTL1 antibody clone; variable regions SEQ ID NO: 791 (light), 793 (heavy) (antibody, V domains shown)
VH: AVTLDESGGGLQTPGGALSLVCKGSGFTFSSFNMFWVRQAPGKGLEWVAGIGKDGVPKYGAAVDGRATISKDNGQSTMRLQLNNLRAEDTGTYFCAKAAGGCSYDWCGIYAGDIDTWGHGTEVIVSS
VL: ASTQPSSVSANPGEAVKITCSGGSGSYYGWYQQKSPGSAPVTVIYNNNQRPSDIPSRFSGSKSGSTATLTITGVQAEDEAVYFCGGYDSSSGHGGIFGAGTTLTVL
modifications: mouse constant regions
Turning to B4, the “effect on weight loss (mouse body weight)” value in assay [1] was “anti-weight loss effect”.

B5: #13: chicken-mouse chimeric anti-FSTL1 antibody clone; variable regions SEQ ID NO: 815 (light), 817 (heavy) (antibody, V domains shown)
VH: AVTLDESGGGLQTPGGGLSLVCKASGFTFSSVTMQWVRQAPGKGLEWVASICSGSSTYYGPAVKGRATISRDNGQNTVRLQLNNLRAEDTATYYCAKIVGRGRWSCTSAAYNIDAWGHGTEVIVSS
VL: ASTQPSSVSANPGETVKITCSGGGNNYGWYQQKSPGSAPVTVIYNNNNRPSNIPSRFSGSKSGSTNTLTITGVQAEDEAVYYCGSYDSSSDSGIFGAGTTLTVL
modifications: mouse constant regions
For B5, in the assay with FSTL1 [4], the “inhibitory effect in the MSC induction inhibition test (CD45(−) MSCs and sMSCs, flow cytometry)” value is “strong inhibitory effect equivalent to or higher than that of #6-55”. Also, the “affinity in an assay system” value in the assay with FSTL1 [2] is reported as “strong affinity”. Besides, in assay [5], the “MSC induction inhibitory effect” value was “strong inhibitory effect equivalent to or higher than that of #6-55”.
